The target of the experiment is T1, odorranalectin (Odorrana grahami).
T1 chain: YASPKCFRYPNGVLACT
The experiment can be described thus: SPR; glycans on fetuin (lectin-type recognition of a glycoprotein); calcium not required. (In general: In SPR one partner is held on a chip, and binding of the other changes the refractive index at the surface.)

In paper PMC2440032 (2008) one finds Kd data, which are given here for 1 molecule.

B1: fetuin (protein)
chain: IPLDPVAGYKEPACDDPDTEQAALAAVDYINKHLPRGYKHTLNQIDSVKVWPRRPTGEVYDIEIDTLETTCHVLDPTPLANCSVRQQTQHAVEGDCDIHVLKQDGQFSVLFTKCDSSPDSAEDVRKLCPDCPLLAPLNDSRVVHAVEVALATFNAESNGSYLQLVEISRAQFVPLPVSVSVEFAVAATDCIAKEVVDPTKCNLLAEKQYGFCKGSVIQKALGGEDVRVTCTLFQTQPVIPQPQPDGAEAEAPSAVPDAAGPTPSAAGPPVASVVVGPSVVAVPLPLHRAHYDLRHTFSGVASVESSSGEAFHVGKTPIVGQPSIPGGPVRLCPGRIRYFKI
B1: the Kd (in general, the equilibrium constant for the complex coming apart) was 211 nM.
